Columns and labels:
[1] = target: GST-PrPc (β1α1) protein (human); experiment: Biacore (SPR), soluble GST-PrPc (β1α1) at several concentrations
[2] = target: GST-PrPc (β1α1) protein (human); experiment: Biacore (SPR), ratio of affinities
[3] = target: human cellular prion protein (human); experiment: cell-based or functional assay

B1: anti-PrPc mAb-5 (monoclonal antibody Ab-5) (antibody, V domains shown)
VH: EVQLQQSGPELVKPGASVKMSCKASGYTFTDYYMKWVKQSHGKSLEWIGDINPNNGDTFYNQKFKGKATLTVDKSSNTAYMQLNSLTSEDSAVYYCAKPGRTYWGQGTLVTVSAAKTTAPSVYPLAPVCGGSRP
VL: DIVLTQSPASLAVSLGQRATISYRASKSVSTSGYSYMHWNQQKPGQPPRLLIYLVSNLESGVPARFSGSGSGTDFTLNIHPVEEEDAATYYCQHIRELTRSEGGPSWK
With B1 the Kd [1] was 3.05 nM, the fold affinity against 12F10 [2] was 5.38 times and the fold affinity against Ab-3 [2] was 1.87 times. The Migrated cell number, HCT116 cells (transwell, antibody 10 µg/mL, 24 h) [3] was 192 cells, the Migrated cell number, MDA-MB-231 cells (transwell, antibody 10 µg/mL, 24 h) [3] was 695 cells and the Migrated cell number, SW480 cells (transwell, antibody 10 µg/mL, 24 h) [3] was 111 cells.

From patent US20170066817A1
